From patent publication US9512459B2 (priority 2011, dated 2016)

B1: Aspergillus niger glucose dehydrogenase (FAD-GDH) Ang-n2 variant E195K/Q196E/G73A, SEQ ID NO: 2 (Aspergillus niger CBS 513.88; E195K/G73A/Q196E) (protein)
chain: YDFVIVGGGTSGLVVANRLSELSDVTVAVIEAGESALNNFNVSNVMAYSTAFGTEVDWAYQTENQTYAGGLQQTIRAGKALGGTSTINGMSYTRAEDVQIDNWEVLGNDGWNWKNLFQYYKKSEGFQVPTKDQIAHGASYNASYHGLNGPLKVGWPNSMTNSSVFPVLKETFEKLGVQYNPDSEGGKMVGFTVHPDTLDREMNVREDAARAYYWPYEARSNLKIISNTRANKVIWANTTQGEAVAVGIEVTNAYGTETIYADKEVILSAGALRSPAILELSGIGNPDVLNKHNIPVKVNITTVGENLQDQTNNALSWEGVDTLTGLATFSVLPSVNQLYGDNVTALASYVKSQLASYAKTVASASNGAVKEANLVEAFERQYDLIFNSQVPYTEVVFAPSGNSFAVEYWPLLPFSRGSVHIQSANASDYPAINPNYFMFDQDAEAQVTVAQYIRKALGTAPLNSLVGEEVSPGLDVLPASASSATWTKWVKENYRTNYHPVGTTSMLPREKGGVVSPELKVYGTKNVRVVDASVLPFQLCGHLTSTLYAVAERASDLIKESY
notes: E. coli BL21(DE3), crude extract, small-scale culture
B2: Aspergillus niger glucose dehydrogenase (FAD-GDH) Ang-n2 variant T522S, SEQ ID NO: 2 (Aspergillus niger CBS 513.88; T522S) (protein)
chain: YDFVIVGGGTSGLVVANRLSELSDVTVAVIEAGESALNNFNVSNVMGYSTAFGTEVDWAYQTENQTYAGGLQQTIRAGKALGGTSTINGMSYTRAEDVQIDNWEVLGNDGWNWKNLFQYYKKSEGFQVPTKDQIAHGASYNASYHGLNGPLKVGWPNSMTNSSVFPVLEQTFEKLGVQYNPDSEGGKMVGFTVHPDTLDREMNVREDAARAYYWPYEARSNLKIISNTRANKVIWANTTQGEAVAVGIEVTNAYGTETIYADKEVILSAGALRSPAILELSGIGNPDVLNKHNIPVKVNITTVGENLQDQTNNALSWEGVDTLTGLATFSVLPSVNQLYGDNVTALASYVKSQLASYAKTVASASNGAVKEANLVEAFERQYDLIFNSQVPYTEVVFAPSGNSFAVEYWPLLPFSRGSVHIQSANASDYPAINPNYFMFDQDAEAQVTVAQYIRKALGTAPLNSLVGEEVSPGLDVLPASASSATWTKWVKENYRSNYHPVGTTSMLPREKGGVVSPELKVYGTKNVRVVDASVLPFQLCGHLTSTLYAVAERASDLIKESY
notes: pET30c, E. coli BL21(DE3), crude extract
B3: Aspergillus niger glucose dehydrogenase (FAD-GDH) Ang-n2 variant N368K/T522S, SEQ ID NO: 2 (Aspergillus niger CBS 513.88; N368K/T522S) (protein)
chain: YDFVIVGGGTSGLVVANRLSELSDVTVAVIEAGESALNNFNVSNVMGYSTAFGTEVDWAYQTENQTYAGGLQQTIRAGKALGGTSTINGMSYTRAEDVQIDNWEVLGNDGWNWKNLFQYYKKSEGFQVPTKDQIAHGASYNASYHGLNGPLKVGWPNSMTNSSVFPVLEQTFEKLGVQYNPDSEGGKMVGFTVHPDTLDREMNVREDAARAYYWPYEARSNLKIISNTRANKVIWANTTQGEAVAVGIEVTNAYGTETIYADKEVILSAGALRSPAILELSGIGNPDVLNKHNIPVKVNITTVGENLQDQTNNALSWEGVDTLTGLATFSVLPSVNQLYGDKVTALASYVKSQLASYAKTVASASNGAVKEANLVEAFERQYDLIFNSQVPYTEVVFAPSGNSFAVEYWPLLPFSRGSVHIQSANASDYPAINPNYFMFDQDAEAQVTVAQYIRKALGTAPLNSLVGEEVSPGLDVLPASASSATWTKWVKENYRSNYHPVGTTSMLPREKGGVVSPELKVYGTKNVRVVDASVLPFQLCGHLTSTLYAVAERASDLIKESY
notes: as for B2
B4: Aspergillus niger glucose dehydrogenase (FAD-GDH) Ang-n2 variant E195K/Q196E/N368K/T522S, SEQ ID NO: 2 (Aspergillus niger CBS 513.88; E195K/N368K/Q196E/T522S) (protein)
chain: YDFVIVGGGTSGLVVANRLSELSDVTVAVIEAGESALNNFNVSNVMGYSTAFGTEVDWAYQTENQTYAGGLQQTIRAGKALGGTSTINGMSYTRAEDVQIDNWEVLGNDGWNWKNLFQYYKKSEGFQVPTKDQIAHGASYNASYHGLNGPLKVGWPNSMTNSSVFPVLKETFEKLGVQYNPDSEGGKMVGFTVHPDTLDREMNVREDAARAYYWPYEARSNLKIISNTRANKVIWANTTQGEAVAVGIEVTNAYGTETIYADKEVILSAGALRSPAILELSGIGNPDVLNKHNIPVKVNITTVGENLQDQTNNALSWEGVDTLTGLATFSVLPSVNQLYGDKVTALASYVKSQLASYAKTVASASNGAVKEANLVEAFERQYDLIFNSQVPYTEVVFAPSGNSFAVEYWPLLPFSRGSVHIQSANASDYPAINPNYFMFDQDAEAQVTVAQYIRKALGTAPLNSLVGEEVSPGLDVLPASASSATWTKWVKENYRSNYHPVGTTSMLPREKGGVVSPELKVYGTKNVRVVDASVLPFQLCGHLTSTLYAVAERASDLIKESY
notes: as for B2
B5: Aspergillus niger glucose dehydrogenase (FAD-GDH) Ang-n3, SEQ ID NO: 2 (26 N-terminal residues deleted, Met-Asn-Thr-Thr-Thr- added) (Aspergillus niger CBS … (protein)
chain: YDFVIVGGGTSGLVVANRLSELSDVTVAVIEAGESALNNFNVSNVMGYSTAFGTEVDWAYQTENQTYAGGLQQTIRAGKALGGTSTINGMSYTRAEDVQIDNWEVLGNDGWNWKNLFQYYKKSEGFQVPTKDQIAHGASYNASYHGLNGPLKVGWPNSMTNSSVFPVLEQTFEKLGVQYNPDSEGGKMVGFTVHPDTLDREMNVREDAARAYYWPYEARSNLKIISNTRANKVIWANTTQGEAVAVGIEVTNAYGTETIYADKEVILSAGALRSPAILELSGIGNPDVLNKHNIPVKVNITTVGENLQDQTNNALSWEGVDTLTGLATFSVLPSVNQLYGDNVTALASYVKSQLASYAKTVASASNGAVKEANLVEAFERQYDLIFNSQVPYTEVVFAPSGNSFAVEYWPLLPFSRGSVHIQSANASDYPAINPNYFMFDQDAEAQVTVAQYIRKALGTAPLNSLVGEEVSPGLDVLPASASSATWTKWVKENYRTNYHPVGTTSMLPREKGGVVSPELKVYGTKNVRVVDASVLPFQLCGHLTSTLYAVAERASDLIKESY
notes: otherwise wild type; pET30c, E. coli BL21(DE3), dialysed crude enzyme
B6: Aspergillus niger glucose dehydrogenase (FAD-GDH) Ang-n2 variant E195K/Q196D, SEQ ID NO: 2 (Aspergillus niger CBS 513.88; E195K/Q196D) (protein)
chain: YDFVIVGGGTSGLVVANRLSELSDVTVAVIEAGESALNNFNVSNVMGYSTAFGTEVDWAYQTENQTYAGGLQQTIRAGKALGGTSTINGMSYTRAEDVQIDNWEVLGNDGWNWKNLFQYYKKSEGFQVPTKDQIAHGASYNASYHGLNGPLKVGWPNSMTNSSVFPVLKDTFEKLGVQYNPDSEGGKMVGFTVHPDTLDREMNVREDAARAYYWPYEARSNLKIISNTRANKVIWANTTQGEAVAVGIEVTNAYGTETIYADKEVILSAGALRSPAILELSGIGNPDVLNKHNIPVKVNITTVGENLQDQTNNALSWEGVDTLTGLATFSVLPSVNQLYGDNVTALASYVKSQLASYAKTVASASNGAVKEANLVEAFERQYDLIFNSQVPYTEVVFAPSGNSFAVEYWPLLPFSRGSVHIQSANASDYPAINPNYFMFDQDAEAQVTVAQYIRKALGTAPLNSLVGEEVSPGLDVLPASASSATWTKWVKENYRTNYHPVGTTSMLPREKGGVVSPELKVYGTKNVRVVDASVLPFQLCGHLTSTLYAVAERASDLIKESY
notes: as for B2
B7: Aspergillus niger glucose dehydrogenase (FAD-GDH) Ang-n2 variant N368K, SEQ ID NO: 2 (Aspergillus niger CBS 513.88; N368K) (protein)
chain: YDFVIVGGGTSGLVVANRLSELSDVTVAVIEAGESALNNFNVSNVMGYSTAFGTEVDWAYQTENQTYAGGLQQTIRAGKALGGTSTINGMSYTRAEDVQIDNWEVLGNDGWNWKNLFQYYKKSEGFQVPTKDQIAHGASYNASYHGLNGPLKVGWPNSMTNSSVFPVLEQTFEKLGVQYNPDSEGGKMVGFTVHPDTLDREMNVREDAARAYYWPYEARSNLKIISNTRANKVIWANTTQGEAVAVGIEVTNAYGTETIYADKEVILSAGALRSPAILELSGIGNPDVLNKHNIPVKVNITTVGENLQDQTNNALSWEGVDTLTGLATFSVLPSVNQLYGDKVTALASYVKSQLASYAKTVASASNGAVKEANLVEAFERQYDLIFNSQVPYTEVVFAPSGNSFAVEYWPLLPFSRGSVHIQSANASDYPAINPNYFMFDQDAEAQVTVAQYIRKALGTAPLNSLVGEEVSPGLDVLPASASSATWTKWVKENYRTNYHPVGTTSMLPREKGGVVSPELKVYGTKNVRVVDASVLPFQLCGHLTSTLYAVAERASDLIKESY
notes: as for B2
B8: Aspergillus niger glucose dehydrogenase (FAD-GDH) Ang-n3 variant E195K/Q196E, SEQ ID NO: 2 (Aspergillus niger CBS 513.88; E195K/Q196E) (protein)
chain: YDFVIVGGGTSGLVVANRLSELSDVTVAVIEAGESALNNFNVSNVMGYSTAFGTEVDWAYQTENQTYAGGLQQTIRAGKALGGTSTINGMSYTRAEDVQIDNWEVLGNDGWNWKNLFQYYKKSEGFQVPTKDQIAHGASYNASYHGLNGPLKVGWPNSMTNSSVFPVLKETFEKLGVQYNPDSEGGKMVGFTVHPDTLDREMNVREDAARAYYWPYEARSNLKIISNTRANKVIWANTTQGEAVAVGIEVTNAYGTETIYADKEVILSAGALRSPAILELSGIGNPDVLNKHNIPVKVNITTVGENLQDQTNNALSWEGVDTLTGLATFSVLPSVNQLYGDNVTALASYVKSQLASYAKTVASASNGAVKEANLVEAFERQYDLIFNSQVPYTEVVFAPSGNSFAVEYWPLLPFSRGSVHIQSANASDYPAINPNYFMFDQDAEAQVTVAQYIRKALGTAPLNSLVGEEVSPGLDVLPASASSATWTKWVKENYRTNYHPVGTTSMLPREKGGVVSPELKVYGTKNVRVVDASVLPFQLCGHLTSTLYAVAERASDLIKESY
notes: pET30c, E. coli BL21(DE3), dialysed crude enzyme
B9: Aspergillus niger glucose dehydrogenase (FAD-GDH) Ang-n2 variant E195K/Q196R, SEQ ID NO: 2 (Aspergillus niger CBS 513.88; E195K/Q196R) (protein)
chain: YDFVIVGGGTSGLVVANRLSELSDVTVAVIEAGESALNNFNVSNVMGYSTAFGTEVDWAYQTENQTYAGGLQQTIRAGKALGGTSTINGMSYTRAEDVQIDNWEVLGNDGWNWKNLFQYYKKSEGFQVPTKDQIAHGASYNASYHGLNGPLKVGWPNSMTNSSVFPVLKRTFEKLGVQYNPDSEGGKMVGFTVHPDTLDREMNVREDAARAYYWPYEARSNLKIISNTRANKVIWANTTQGEAVAVGIEVTNAYGTETIYADKEVILSAGALRSPAILELSGIGNPDVLNKHNIPVKVNITTVGENLQDQTNNALSWEGVDTLTGLATFSVLPSVNQLYGDNVTALASYVKSQLASYAKTVASASNGAVKEANLVEAFERQYDLIFNSQVPYTEVVFAPSGNSFAVEYWPLLPFSRGSVHIQSANASDYPAINPNYFMFDQDAEAQVTVAQYIRKALGTAPLNSLVGEEVSPGLDVLPASASSATWTKWVKENYRTNYHPVGTTSMLPREKGGVVSPELKVYGTKNVRVVDASVLPFQLCGHLTSTLYAVAERASDLIKESY
notes: as for B2
B10: Aspergillus niger glucose dehydrogenase (FAD-GDH) Ang-n1 variant E195K/Q196E, SEQ ID NO: 2 (Aspergillus niger CBS 513.88; E195K/Q196E) (protein)
chain: MDSPAHYDFVIVGGGTSGLVVANRLSELSDVTVAVIEAGESALNNFNVSNVMGYSTAFGTEVDWAYQTENQTYAGGLQQTIRAGKALGGTSTINGMSYTRAEDVQIDNWEVLGNDGWNWKNLFQYYKKSEGFQVPTKDQIAHGASYNASYHGLNGPLKVGWPNSMTNSSVFPVLKETFEKLGVQYNPDSEGGKMVGFTVHPDTLDREMNVREDAARAYYWPYEARSNLKIISNTRANKVIWANTTQGEAVAVGIEVTNAYGTETIYADKEVILSAGALRSPAILELSGIGNPDVLNKHNIPVKVNITTVGENLQDQTNNALSWEGVDTLTGLATFSVLPSVNQLYGDNVTALASYVKSQLASYAKTVASASNGAVKEANLVEAFERQYDLIFNSQVPYTEVVFAPSGNSFAVEYWPLLPFSRGSVHIQSANASDYPAINPNYFMFDQDAEAQVTVAQYIRKALGTAPLNSLVGEEVSPGLDVLPASASSATWTKWVKENYRTNYHPVGTTSMLPREKGGVVSPELKVYGTKNVRVVDASVLPFQLCGHLTSTLYAVAERASDLIKESY
notes: as for B2

Substrate: OC[C@H]1OC(O)[C@H](O)[C@@H](O)[C@@H]1O
Assay: cells, lysate or membranes named
Type: biochemical, Aspergillus niger
Settings: other: 3 ml culture, crude enzyme, glucose 1-40 mM, pH 6.5, DCIP/PMS

Row | Protein | Km [mM] | Vmax [U/mg protein]
1 | B1 | 5.5 | 5.0

Same assay, conditions: other: 60 ml culture, crude enzyme, glucose 1-40 mM, pH 6.5, DCIP/PMS, 20.0 °C

Row | Protein | Km [mM] | Vmax [µmol/min/mg]
2 | B2 | 2.5 | 3.4
3 | B3 | 3.4 | 5.3
4 | B4 | 3.2 | 6.1
5 | B5 | 3.7 | 0.7
6 | B6 | 2.9 | 5.1
7 | B7 | 4.6 | 0.7
8 | B8 | 2.2 | 4.5
9 | B9 | 2.5 | 4.3
10 | B10 | 2.8 | 2.5
